The target in assay [1] is T1, integrin αvβ3 on human cells (human, UniProt P06756).
The target in assay [2] is purified human placental integrin αvβ3 (human) (UniProt P06756). As to the kind of experiment: isolated receptor assay, vitronectin on αvβ3-coated plates.
Assay [3] shares this target. Put plainly: pre-block competition: ligand pre-bound to αvβ3-coated plates, labelled 17E6 as probe.
For assay [4], the system named is human melanoma and carcinoma cell lines. As to the kind of experiment: αV-mediated cell attachment to vitronectin, cell line panel. It is filed as cell-based. As to conditions: read-out: IC50 in cellular assay. Here is the method: (§1) Cell Attachment Assays were as previously described (Goodman et al., 1991), using hexosaminidase activity (Landegren, 1984) to detect attached cells. Dilutions and cell suspensions were in attachment buffer (RPMI, 1% BSA, 25 mM HEPES; pH 7.4). Matrix proteins were coated onto 96- or 48-well plates, the wells were blocked with BSA and serially diluted MAbs were added to the wells followed by cells (2.5×10^4 -5×10^4). After 1 h at 37° C., non-adherent cells were washed away and attached cells counted against a standard curve run in parallel. Inhibition of attachment was calculated by using wells with no MAbs as reference. Typically, over 70% of added cells had attached to vitronectin at 1 h. Cell attachment to wells coated with BSA alone was routinely less than 5% of specifically attached cells.

The target of assay [5] is purified human placental integrin αvβ3 (human) (UniProt P06756). As to the kind of experiment: ELISA on isolated αvβ3.
In assay [6] the target is T2, integrin αvβ5 on human cells (human, UniProt P06756). As to the kind of experiment: cell-based or functional assay.
Assay [7] concerns the target T1, integrin αvβ3 on human cells. As to the kind of experiment: cell-based or functional assay.
For assay [8], the target named is integrin β3 chain, intracellular pool of M21-L cells (human, UniProt P05106). As to the kind of experiment: flow cytometry, permeabilized M21-L cells.
The target of assay [9] is purified human placental integrin αvβ3 (human) (UniProt P06756). Put plainly: direct competition with biotinylated vitronectin on αvβ3-coated plates, 70 nM antibody.
The target in assay [10] is integrin αIIbβ3 on M21-L-IIb cells (human, UniProt P08514). As to the kind of experiment: CELISA, fixed M21-L-IIb cells.
For assay [11], the target named is human αv-integrin chain on the cell surface (human) (UniProt P06756). More on the design: IC50, M21 cell attachment to vitronectin: unit not given beside the values.
Assay [12] addresses T2, integrin αvβ5 on human cells. On the set-up: IC50, M21 cell attachment to vitronectin: unit not given beside the values.
Assay [13] has as its target human αv-integrin chain on the cell surface (human) (UniProt P06756).
The target is the same in assay [14]. The source holds these as a separate data set.
The next assay deals with αvβ1 (V+B2 cells). Put plainly: Cell attachment to vitronectin mediated by αvβ1 (V+B2 cells). It is filed as cell-based. To be noted: FIG. 11. Here is the method:
as §1

The test system of another assay is αvβ5 (UCLA-P3 cells). As to the kind of experiment: Cell attachment to vitronectin mediated by αvβ5 (UCLA-P3 cells). It is filed as cell-based, human. To be noted: vitronectin, FIG. 11. Here is the method:
as §1

The subject of assay [15] is αvβ3 (WM164 and M21 cells). Put plainly: Cell attachment to vitronectin mediated by αvβ3 (WM164 and M21 cells). It is filed as cell-based, human. To be noted: FIG. 11. Here is the method:
as §1

Another assay deals with purified αvβ3. Put plainly: ELISA on purified αvβ3. To be noted: FIG. 10. It is filed as binding, human.
Assay [16] has as its target integrin αvβ1 on V+B2 cells.
For assay [17], the target named is human αv-integrin chain on the cell surface (human, UniProt P06756). As to the kind of experiment: cell-based or functional assay.

Values joined by “and” are separate entries in the source; they are usually repeats but may differ in a detail not shown here. Equal entries are not always repeated. Where two headings read alike, the source gives them in different places. Bounds are passed on as bounds.

LM609 (antibody) returned an IC50, WM793 cell attachment to vitronectin in assay [1] of 0.6 µg/mL.
Consider “vitronectin (from UniProt P04004) (ligand)”, for which the saturation concentration in [2] was 5 µg ml^-1 and 10 nM. Also, the % block of labelled 17E6 binding in assay [3] is < 10%.
Consider `CC(C)[C@@H]1NC(=O)[C@@H](Cc2ccccc2)NC(=O)[C@H](CC(=O)O)NC(=O)CNC(=O)[C@H](CCCNC(=N)N)NC1=O` [cRGDfV, cyclic peptide: Arg-Gly-Asp-DPhe-Val, reference compound], for which the 50% inhibitory concentration (IC50) in [4] was ~1000 nM.
Take fibrinogen (ligand): the % block of labelled 17E6 binding in assay [3] was < 10%.

B1: 17E6 F(ab')2 fragment (other)
VH: QVQLQQSGAELAEPGASVKMSCKASGYTFSSFWMHWVKQRPGQGLEWIGYINPRSGYTECNEIFRDKATMTADTSSSTAYMQLSGLTSEDSAVYYCASFLGRGAMDYWGQGTSVTVSS
VL: DIQMTQTTSSLSASLGDRVIISCRASQDISNYLSWYQQKPDGTVKLLIFYTSKLHSGVPSRFSGSGSGTDYSLTISNLDQEDIATYFCQQGNTFPYTFGGGTKVEMR
With B1, the EC50 in assay [5] was found to be 0.001 µg/mL. Also, the “IC50, UCLA-P3 cell attachment to vitronectin” value in assay [6] was ~0.1 µg ml^-1 and ~700 pM. Moreover, the “IC50, WM164 and M21 cell attachment to vitronectin” value (shortened to “IC50, WM164 and M21 cell attachment”) in assay [7] is ~0.5 µg ml^-1 and ~3 nM.

B2: monoclonal antibody 17E6 (antibody, V domains shown)
VH: B1 VH
VL: B1 VL
Turning to B2, in assay [7], the “IC50, WM164 and M21 cell attachment” value is ~0.5 µg ml^-1 and ~3 nM; the “IC50, WM793 cell attachment to vitronectin” value is ~0.06 µg/mL. Also, in assay [8], the binding result is given as “no binding”. Further, the % inhibition of vitronectin binding in [9] was < 30%. Moreover, in assay [10], the binding result is “no binding”. In assay [11], this molecule showed an IC50, M21 cell attachment to vitronectin of 0.1 and an M21 cell attachment to vitronectin, purified antibody of 85%. The molecule further showed an IC50, UCLAP3 cell attachment to vitronectin in assay [12] of 0.03 µg/mL. Also, the IC50, cellular attachment assay in [13] amounted to 0.1 µg/mL. In [14], this molecule displayed an IC50, αV-mediated cell attachment of 0.3 to 1 nM.

B3: F(ab')2: F(ab')2 fragment of 17E6 prepared by pepsin cleavage (antibody, V domains shown)
VH: B1 VH
VL: B1 VL
For the molecule B3, the “IC50, cell attachment mediated by αvβ1 (V+B2 cells)” value with αvβ1 (V+B2 cells) is given as ~ 0.1 μg ml^-1. The “IC50, cell attachment mediated by αvβ5 (UCLA-P3 cells)” value with αvβ5 (UCLA-P3 cells) is given as ~ 0.1 μg ml^-1. In addition, the “IC50, αvβ3 attachment (WM164 and M21 cells)” value in assay [15] is ~ 0.5 μg ml^-1. Further, the “50% saturation in ELISA on isolated αvβ3” value in the assay with purified αvβ3 is given as ~ 1 ng ml^-1.

B4: 17E6 F(ab') fragment (Fab, V domains shown)
VH: B1 VH
VL: B1 VL
B4 showed an EC50 in [5] of 0.001 µg/mL. For the same molecule, the “fold activity in cell attachment to vitronectin, against αvβ3” value in assay [6] and in assay [16] was 10000 fold in each case. For the same molecule, the “IC50, WM164 and M21 cell attachment” value in assay [7] is > 50 µg ml^-1 and > 400 nM.
Turning to GRGDSPK [linear peptide GRGDSPK], in assay [17], the “IC50, αV-mediated cell attachment” value is ~5000 nM.

For the origin of these results see patent publication US5985278A (Merck Patent Gesellschaft mit Beschrankter Haftung, priority 1994, dated 1999).
